# Where “and” joins values, the source holds several entries; their conditions need not be identical. Equal entries are not always repeated.
# B1: TRIML1: human RING type E3 ligase expressed from lentiviral vector (protein, UniProt Q8N9V2 1-468, looked up)
# Probable E3 ubiquitin-protein …: MSTADLMENLREELTCFICLDYFSSPVTTECGHSFCLVCLLRSWEEHNTPLSCPECWRTLEGPHFQSNERLGRLASIARQLRSQVLQSEDEQGSYGRMPTTAKALSDDEQGGSAFVAQSHGANRVHLSSEAEEHHREKLQEILNLLRVRRKEAQAVLTHEKERVKLCQEETKTCKQVVVSEYMKMHQFLKEEEQLQLQLLEQEEKENMRKLRNNEIKLTQQIRSLSKMIAQIESSSQSSAFESLEEVRGALERSEPLLLQCPEATTTELSLCRITGMKEMLRKFSTEITLDPATANAYLVLSEDLKSVKYGGSRQQLPDNPERFDQSATVLGTQIFTSGRHYWEVEVGNKTEWEVGICKDSVSRKGNLPKPPGDLFSLIGLKIGDDYSLWVSSPLKGQHVREPVCKVGVFLDYESGHIAFYNGTDESLIYSFPQASFQEALRPIFSPCLPNEGTNTDPLTICSLNSHV
# B2: RNF122: human RING type E3 ligase expressed from lentiviral vector (protein, UniProt Q9H9V4 1-155, looked up)
# RING finger protein 122: MHPFQWCNGCFCGLGLVSTNKSCSMPPISFQDLPLNIYMVIFGTGIFVFMLSLIFCCYFISKLRNQAQSERYGYKEVVLKGDAKKLQLYGQTCAVCLEDFKGKDELGVLPCQHAFHRKCLVKWLEVRCVCPMCNKPIASPSEATQNIGILLDELV
# B3: RNF25: human RING type E3 ligase expressed from lentiviral vector; listed twice (protein, UniProt Q96BH1 1-459, looked up)
# E3 ubiquitin-protein ligase …: MAASASAAAGEEDWVLPSEVEVLESIYLDELQVIKGNGRTSPWEIYITLHPATAEDQDSQYVCFTLVLQVPAEYPHEVPQISIRNPRGLSDEQIHTILQVLGHVAKAGLGTAMLYELIEKGKEILTDNNIPHGQCVICLYGFQEKEAFTKTPCYHYFHCHCLARYIQHMEQELKAQGQEQEQERQHATTKQKAVGVQCPVCREPLVYDLASLKAAPEPQQPMELYQPSAESLRQQEERKRLYQRQQERGGIIDLEAERNRYFISLQQPPAPAEPESAVDVSKGSQPPSTLAAELSTSPAVQSTLPPPLPVATQHICEKIPGTRSNQQRLGETQKAMLDPPKPSRGPWRQPERRHPKGGECHAPKGTRDTQELPPPEGPLKEPMDLKPEPHSQGVEGPPQEKGPGSWQGPPPRRTRDCVRWERSKGRTPGSSYPRLPRGQGAYRPGTRRESLGLESKDGS
# modifications: lentiviral expression
# B4: RNF212: human RING type E3 ligase expressed from lentiviral vector (protein, UniProt Q495C1 1-297, looked up)
# Probable E3 SUMO-protein …: MANWVFCNRCFQPPHRTSCFSLTNCGHVYCDACLGKGKKNECLICKAPCRTVLLSKHTDADIQAFFMSIDSLCKKYSRETSQILEFQEKHRKRLLAFYREKISRLEESLRKSVLQIEQLQSMRSSQQTAFSTIKSSVSTKPHGCLLPPHSSAPDRLESMEVDLSPSPIRKSEIAAGPARISMISPPQDGRMGPHLTASFCFIPWLTLSKPPVPGECVISRGSPCFCIDVCPHWLLLLAFSSGRHGELTNSKTLPIYAEVQRAVLFPFQQAEGTLDTFRTPAVSVVFPLCQFERKKSF
# Test system: coxsackievirus B3 (CVB3-GFP)
# Type: cell-based
# Conditions: HeLa cells, replicate R1; for Percent Infected R1: GFP-positive cells within RFP-positive gate
Molecule,Percent Infected R1,Z score R1
B1,77.6%,−0.14
B2,90.3%,0.02
B3,90.6% and 89.2%,0.03 and 0.01
B4,91.1%,0.03
